Source: patent US20170306031A1 (NGM BIOPHARMACEUTICALS, published 2017)

T1: human GFRAL expressed on cells (human, UniProt Q6UXV0 20-394)
T1 sequence: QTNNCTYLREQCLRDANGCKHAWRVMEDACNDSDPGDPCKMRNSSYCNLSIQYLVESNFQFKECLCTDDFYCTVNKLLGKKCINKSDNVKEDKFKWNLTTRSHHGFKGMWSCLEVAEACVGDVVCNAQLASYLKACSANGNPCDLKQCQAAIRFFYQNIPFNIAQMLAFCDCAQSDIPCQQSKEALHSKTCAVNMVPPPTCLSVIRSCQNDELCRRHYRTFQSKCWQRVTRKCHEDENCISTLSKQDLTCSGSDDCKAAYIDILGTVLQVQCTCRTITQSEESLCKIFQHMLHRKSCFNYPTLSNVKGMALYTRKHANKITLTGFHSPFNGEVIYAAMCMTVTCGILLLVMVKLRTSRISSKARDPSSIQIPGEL

T2: human GFRAL (analyte in Biacore assays) (human, UniProt Q6UXV0 19-351, limits assumed)
T2 construct: injected in solution over captured antibody; also called hGFRAL
T2 sequence: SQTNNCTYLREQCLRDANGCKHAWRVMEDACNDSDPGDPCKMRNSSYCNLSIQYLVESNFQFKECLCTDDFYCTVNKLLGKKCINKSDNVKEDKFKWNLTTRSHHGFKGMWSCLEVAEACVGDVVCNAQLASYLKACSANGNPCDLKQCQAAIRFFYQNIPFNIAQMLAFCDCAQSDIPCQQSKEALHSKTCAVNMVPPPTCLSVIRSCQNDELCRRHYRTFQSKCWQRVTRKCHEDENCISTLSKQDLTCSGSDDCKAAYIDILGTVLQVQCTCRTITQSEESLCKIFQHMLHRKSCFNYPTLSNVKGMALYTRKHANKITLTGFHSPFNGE

T3: mouse GFRAL (analyte in Biacore assays) (mouse, UniProt Q6SJE0 20-349, limits assumed)
T3 construct: injected in solution over captured antibody
T3 sequence: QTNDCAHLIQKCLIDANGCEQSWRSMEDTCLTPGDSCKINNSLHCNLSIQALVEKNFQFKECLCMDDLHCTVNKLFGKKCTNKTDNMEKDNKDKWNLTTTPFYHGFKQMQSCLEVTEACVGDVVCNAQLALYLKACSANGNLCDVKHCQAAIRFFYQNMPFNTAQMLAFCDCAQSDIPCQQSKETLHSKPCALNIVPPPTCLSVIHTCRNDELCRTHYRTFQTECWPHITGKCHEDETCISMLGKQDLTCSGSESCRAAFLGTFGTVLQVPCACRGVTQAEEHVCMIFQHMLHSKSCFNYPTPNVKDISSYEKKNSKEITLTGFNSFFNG

B1: antibody designated 8C10 (antibody, V domains shown)
VH: QVQLQQSGVELARPGAAVKLSCKASGYTFANYGLTWVKQRTGQGLEWIGEIYPGSGHTHYNEDFKGKATLTADRSSSTAYMELRSLTSEDSAVYFCARRIQLLLPVGGFVYWGQGTLVTVSA
VL: DFVLTQSPATLSVTPGDSVSLSCRASQSISNNLHWYQQKSHESPRLLIKYASQSISGIPSRFSGSGSGTDFTLSINSVETEDFGVYFCQQSNSWPHTFGGGTKLEIK
notes: mouse hybridoma monoclonal
B2: antibody designated 6N16 (antibody, V domains shown)
VH: QVQLQQSGSELVKPGTSMKLSCKASGYTFTSYNINWVRLRPEQGLEWIGWIFPGDDSIKYNENFRGKATLTTDKSSSTAYMHLSRLTSDDSAVYFCARSGIFYGNNFAYWGQGTLVTVSA
VL: DVVMTQAPLILSVTIGQPASISCKSSQSLLDGDGETYLSWLLQRPGQSPKRLIYLVSKLDSGVPDRFTGSGSGTDFTLKISRVEAEDLGVYYCCQSTHFPLTFGAGTKLELK
notes: mouse hybridoma monoclonal
B3: antibody designated 2I23 (antibody, V domains shown)
VH: QAQLQQSGAELVKPGASVKLSCKASGYSFTSYNIDWVRQRPEQGLEWIGWIFPGDGSTKYNEKFKGQATLTTDKSSSTTYIHLSRLTSEDSAVYFCARSGIYYGSHFVYWGQGTLVTVSA
VL: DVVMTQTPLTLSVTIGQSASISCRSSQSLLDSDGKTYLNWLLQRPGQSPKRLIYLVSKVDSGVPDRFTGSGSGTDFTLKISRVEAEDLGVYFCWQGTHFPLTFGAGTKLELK
notes: mouse hybridoma monoclonal
B4: antibody designated P8G4 (antibody, V domains shown)
VH: QVQLKQSGPGLVQPSQSLSITCTVSGFSLTSYGVHWVRQSPGKGLDWLGVLWSGGSTDYNAAFISRLSISKDNSKSQVFFKMNSLQADDTAIYYCARNFGDYWGQGTSVTVSS
VL: QIVLTQSPAIMSASPGEKVTMTCSASSRVSYMHWYQQKSGTSPKRWIYDTSKLASGVPARFSGSGSGTSYSLTISSMEAEDAATYYCQQWNNNPPTFGAGTTLELK
notes: mouse hybridoma monoclonal
B5: antibody designated 1A3 (antibody, V domains shown)
VH: EVQLQQSGPELVKPGASVKISCKASGFTFTDYYMNWVKQSHGKSLEWIGDIIPNNGVTSYNQKFKGKATLTVDKSSSTAYMELRSLTSEDSAVYYCAREWLLRGMDYWGQGTSVTVSS
VL: DIVMTQAAFSNPVTLGTSASISCRSSKSLLHSNGITYLYWYLQKPGQSPQLLIYQMSNLASGVPDRFSSSGSGTDFTLRISRVEAEDVGVYYCAQHLELTWTFGGGTKLEIK
notes: mouse hybridoma monoclonal
B6: antibody designated P1B6 (antibody, V domains shown)
VH: EVQLQQSGPELVKPGASVKMSCKASGYTFTDYYMNWVKQTHGKSLEWIGDINPNNGGPIYNQKFKGKATLTVDKSSSTAYMELRSLTSEDSAVYYCARSDSAWFTYWGQGTLVTVSA
VL: QIVLTQSPAIMSASPGEKVTMTCSASSSVSYMYWYQQKPGSSPRLLIYDTSNLASGVPVRFSGSGSGTFYSITISRMEAEDAATYYCQQWNSYPPTFGGGTKLEIK
notes: mouse hybridoma monoclonal
B7: antibody designated P1H8 (antibody, V domains shown)
VH: EVQLQQSGPELVKPGASVKISCKASGYTFTDYYMNWVKQSHGKSLEWIGDINPNNGGTTYNQKFKGKATLTVDKSSSTAYMELRSLTSEDSAVYYCARQGPWYFDVWGTGTTVTVSS
VL: DVLMTQTPLSLPVSLGDQASISCRSSQTIVHSNGYTYLEWYLQKPGQSPKLLIYKVSNRFSGVPDRFSGSGSGTDFTLKISRVEAEDLGVYYCFQGSHVPWTFGGGTKLEIK
notes: mouse hybridoma monoclonal

Each binder was assayed against T1, human GFRAL expressed on cells (assay: cell-based or functional assay).

Binder | IC50, ELK1-luciferase reporter (hGFRAL/hRET)
B1 | 1.79 nM
B2 | 1.62 nM
B3 | 7.18 nM

Target: T1, human GFRAL expressed on cells
Assay: cell-based or functional assay
Remark: another data set of the same source

Binder | IC50, ERK phosphorylation in U2OS hGFRAL/hRET cells
B1 | 0.28 nM
B2 | 0.27 nM

What follows are binders tested against T2, human GFRAL (analyte in Biacore assays) (assay: Biacore SPR, antibody captured, GFRAL injected).
Method: (§1) In addition, the binding affinity of antibodies to human and mouse GFRAL were measured. For example, antibodies were rank ordered based on their binding affinity to human GFRAL and mouse GFRAL by low resolution KD measurement by Biacore. Briefly, an anti-mouse Fc antibody (Sigma-Aldrich, St. Louis, Mo.) was immobilized on all four flow cells of a CM5 chip using amine coupling reagents (GE Healthcare LifeSciences, Piscataway, N.J.). Purified antibodies were captured (˜100 RUs) on flow cells 2, 3 and 4 using flow cell 1 as a reference. This was followed by injection of human or mouse GFRAL (25 nM in PBS-P buffer) at a flow rate of 70 μL/m in and monitoring the binding kinetics at 25° C.
(§2) Binding affinity measurements were also made in additional Biacore based assays. For example, equilibrium dissociation constant (KD) measurements were carried out with purified antibodies to evaluate their binding to human GFRAL or mouse GFRAL. As mentioned above, anti-mouse Fc antibody (Sigma-Aldrich, St. Louis, Mo.) was immobilized on all four flow cells of a CM5 chip using amine coupling reagents (GE Healthcare LifeSciences, Piscataway, N.J.). Purified antibodies were captured (˜100 RUs) on flow cells 2, 3 and 4 using flow cell 1 as a reference. This was followed by injection of human or mouse GFRAL in PBS-P buffer) at a flow rate of 70 μL/min and the binding kinetics were evaluated at 25° C.

Binder | Kd | koff
B4 | 0.21 nM | 0.000276 s⁻¹
B5 | 0.11 nM | 7.57e-05 s⁻¹
B1 | < 0.1 nM | 7.2e-05 s⁻¹
B6 | 0.14 nM | 9.72e-05 s⁻¹
B2 | 0.16 nM | 9.93e-05 s⁻¹
B7 | 0.21 nM | 8.99e-05 s⁻¹
B3 | 0.23 nM | 6.77e-05 s⁻¹

What follows are binders tested against T3, mouse GFRAL (analyte in Biacore assays) (assay: Biacore SPR, antibody captured, GFRAL injected).
Method: as §1, §2

Binder | binding result
B4 | no binding
B5 | no binding
B6 | no binding
B2 | no binding
B7 | no binding
B3 | no binding
